The source of these data is publication PMC11444770, “Moesin contributes to heat shock gene response through direct binding to the Med15 subunit of the Mediator complex in the nucleus” (Open Biology, 2024).

First the molecules themselves.
B1: GST-Med17 (natural protein, Drosophila melanogaster, UniProt Q9VEC1 1-642, looked up)
chain: MSNSVNISVETTCENQIREIGYDGTELYQPPPTLSESLAKCAARIDFSKTSLDDLKKEEKSAAAAADEDKDATQFQESLWPWDAVRNKLKDALTEICVLSDVISIAKDKRYLVLDPLLEEADDTKPIVQVYSRKKAISQAAQVLLSGAERLRNAHSEQRNRNVSDFHIELLRLRQNWRLKKVSNAIIGDLSYRTAGSKFGMSGTFEVTKAEETGDEDTASSSNSSSSVSGNNGMQLKASSALRVIVPAELQGVAYIKVITQKDQEDLCTAQLNLMGHGPNITAQVGVWQKTLEFAQNVLFCKELFAQLAREAIQLQAPIPHVVIGNQIRATLLPNIQLIISLCHSTTFDSSQPAPINDHDHVLEHSLHQLLREVHYKNSHHPFPHPASAPLGPTKKRMLAGPMAADRETLLDMTKSQTILEQIIAQAQHIFMRKRTQYVLDTLARDVKDPQIVSHWNAMNSPTMSCVKINIVTHGYDAIGRTSLVIHVKERSLKCICRDGRVMRLSYEPQELRDLILCQINSHQISCLISLARCMSWTVLSNSNHLGIGKVEPLGNASSCLLASPNSDRMIAVQIRCDPQIDVKVYIARSPRQDFFPSPLVPEKLWENLGGTFKEVRFDKIEGKSFLNKMEFLMASLTSNTA
notes: Med17, Drosophila Mediator subunit; CDS amplified with the primers Med17 pGex6P-1 Fw/Rev (start to stop codon) and cloned into pGex6P-1; source: E. coli SixPack, purified on Glutathione Sepharose 4B, kept on the beads; not shown: GST, N-terminal, kept
B2: 6xHis-FERM-Moe (domain or fragment, Drosophila melanogaster, UniProt P46150 1-484, looked up)
chain: MSPKALNVRVTTMDAELEFAIQSTTTGKQLFDQVVKTIGLREVWFFGLQYTDSKGDSTWIKLYKKVMNQDVKKENPLQFRFRAKFYPEDVAEELIQDITLRLFYLQVKNAILTDEIYCPPETSVLLASYAVQARHGDHNKTTHTAGFLANDRLLPQRVIDQHKMSKDEWEQSIMTWWQEHRSMLREDAMMEYLKIAQDLEMYGVNYFEIRNKKGTDLWLGVDALGLNIYEQDDRLTPKIGFPWSEIRNISFSEKKFIIKPIDKKAPDFMFFAPRVRINKRILALCMGNHELYMRRRKPDTIDVQQMKAQAREEKNAKQQEREKLQLALAARERAEKKQQEYEDRLKQMQEDMERSQRDLLEAQDMIRRLEEQLKQLQAAKDELELRQKELQAMLQRLEEAKNMEAVEKLKLEEEIMAKQMEVQRIQDEVNAKDEETKRLQDEVEDARRKQVIAAEAAAALLAASTTPQHHHVAEDENENEEELT
notes: Drosophila Moesin, amino acids 1-484 (FERM-Moe); The methods say C-terminal 6xHis tagging in pDEST17, while the label 6xHis-FERM-Moe puts the tag first; as far as I recall pDEST17 adds an N-terminal His tag; also called 6xHis-tagged FERM-Moesin; source: E. coli, purified (HisPur Cobalt Resin or Ni-NTA beads); not shown: 6xHis, C-terminal, kept
B3: GST-FERM-Moesin (domain or fragment, Drosophila melanogaster, UniProt P46150 1-484, looked up)
chain: B2 chain
notes: pGex6P-1 vector; also called GST-Moesin; source: E. coli SixPack, purified on Glutathione Sepharose 4B, kept on the beads; not shown: GST, N-terminal, kept
B4: 6xHis-Hsf (natural protein, Drosophila melanogaster, UniProt P22813 1-691, looked up)
chain: MSRSRSSAKAVQFKHESEEEEEDEEEQLPSRRMHSYGDAAAIGSGVPAFLAKLWRLVDDADTNRLICWTKDGQSFVIQNQAQFAKELLPLNYKHNNMASFIRQLNMYGFHKITSIDNGGLRFDRDEIEFSHPFFKRNSPFLLDQIKRKISNNKNGDDKGVLKPEAMSKILTDVKVMRGRQDNLDSRFSAMKQENEVLWREIASLRQKHAKQQQIVNKLIQFLITIVQPSRNMSGVKRHVQLMINNTPEIDRARTTSETESESGGGPVIHELREELLDEVMNPSPAGYTAASHYDQESVSPPAVERPRSNMSISSHNVDYSNQSVEDLLLQGNGTAGGNILVGGAASPMAQSVSQSPAQHDVYTVTEAPDSHVQEVPNSPPYYEEQNVLTTPMVREQEQQKRQQLKENNKLRRQAGDVILDAGDILVDSSSPKAQRTSIQHSTQPDVMVQPMIIKSEPENSSGLMDLMTPANDLYSVNFISEDMPTDIFEDALLPDGVEEAAKLDQQQKFGQSTVSSGKFASNFDVPTNSTLLDANQASTSKAAAKAQASEEEGMAVAKYSGAENGNNRDTNNSQLLRMASVDELHGHLESMQDELETLKDLLRGDGVAIDQNMLMGLFNDSDLMDNYGLSFPNDSISSEKKAPSGSELISYQPMYDLSDILDTDDGNNDQEASRRQMQTQSSVLNTPRHEL
notes: heat shock factor (Hsf), the Drosophila Hsf1 homologue; The methods say C-terminal 6xHis tagging in pDEST17, while the label 6xHis-Hsf puts the tag first; as far as I recall pDEST17 adds an N-terminal His tag; also called heat shock factor; source: E. coli, purified (HisPur Cobalt Resin or Ni-NTA beads); not shown: 6xHis, C-terminal, kept

Holding throughout (assay): pull-down; GST-6xHis pull-down: GST-tagged baits immobilised on glutathione beads, purified 6xHis-tagged preys; 50 mM Hepes pH 7.5, 150 mM NaCl, 2 mM MgCl2, 1 mM EGTA, 1 mM DTT, 0.1% Triton X-100, 0.5 mg/ml BSA; 1.5 h at 4°C; western blot
Conditions in all cases: both partners purified

The experiment “6xHis-Hsf” has as its target B4.
The target in the experiment “GST-Med17” is B1.
For the next experiment, the target named is T1, GST-Med15 (Drosophila melanogaster, UniProt Q9Y149 1-749).
T1 construct: Med15, Drosophila Mediator subunit; CDS amplified with the primers Med15 pGex6P-1 Fw/Rev (start to stop codon) and cloned into pGex6P-1; source: E. coli SixPack, purified on Glutathione Sepharose 4B, kept on the beads; not shown: GST, N-terminal, kept
T1 sequence (looked up): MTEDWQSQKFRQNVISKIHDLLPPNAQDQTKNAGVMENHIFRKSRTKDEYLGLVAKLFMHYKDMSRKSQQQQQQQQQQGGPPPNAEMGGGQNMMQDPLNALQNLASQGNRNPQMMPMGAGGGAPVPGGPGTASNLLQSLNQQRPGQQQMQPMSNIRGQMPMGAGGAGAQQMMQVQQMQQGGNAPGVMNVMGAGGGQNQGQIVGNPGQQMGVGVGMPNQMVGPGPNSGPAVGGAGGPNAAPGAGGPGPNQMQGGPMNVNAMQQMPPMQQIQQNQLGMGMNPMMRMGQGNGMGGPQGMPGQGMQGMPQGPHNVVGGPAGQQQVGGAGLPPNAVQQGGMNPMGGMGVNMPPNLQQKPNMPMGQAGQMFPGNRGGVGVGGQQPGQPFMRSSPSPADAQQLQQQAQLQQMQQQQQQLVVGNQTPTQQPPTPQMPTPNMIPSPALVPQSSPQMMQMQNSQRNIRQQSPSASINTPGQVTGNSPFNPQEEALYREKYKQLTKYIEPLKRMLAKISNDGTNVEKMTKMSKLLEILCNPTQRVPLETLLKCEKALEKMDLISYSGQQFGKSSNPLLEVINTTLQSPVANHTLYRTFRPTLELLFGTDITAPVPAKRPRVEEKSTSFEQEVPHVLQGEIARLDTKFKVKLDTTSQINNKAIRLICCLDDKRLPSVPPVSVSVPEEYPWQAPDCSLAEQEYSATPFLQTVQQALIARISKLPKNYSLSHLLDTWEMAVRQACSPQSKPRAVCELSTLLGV

With B1, the binding result with 6xHis-Hsf is listed as “binds”.
Turning to B2, the binding result with GST-Med17 and with GST-Med15 was “binds” each time.
As to B3, the binding result in the experiment with 6xHis-Hsf is “binds”.
In the case of B4, in the experiment with GST-Med15, the binding result is on record as “binds”.
